Measurements published in patent US20110045003A1 (SYNOVEX, published 2011).
Positions count from the first letter of the chain named. Numbers in names are those of the source. Like-named read-outs stand apart in the source and are kept apart here. Blank lines part the entries; values can stand above or below the binder they belong to.

Experiments:
[1] = target: T1, BSA coupled 37-mer Cad-11 peptide encompassing the Cad-11 immunogen (UniProt P55287 54-90, limits assumed, linked to BSA); experiment: ELISA on BSA coupled 37-mer peptides, coat 50 ng/ml
T1 construct: domain: 37-mer peptide encompassing the Cad-11 immunogen; also called Cad-11 antigen; Cad-11 peptide immunogen
T1 peptide (looked up): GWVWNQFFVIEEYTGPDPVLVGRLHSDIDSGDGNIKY

[2] = target: T2, recombinant his-tagged human Cad-11 (R&D Systems) (human, UniProt P55287 54-617); experiment: SPR, rhCad-11 immobilized, SDP051 as analyte, 2 state reaction model
T2 construct: also called rhCad-11; recombinant human Cad-11; not shown: his tag
T2 sequence: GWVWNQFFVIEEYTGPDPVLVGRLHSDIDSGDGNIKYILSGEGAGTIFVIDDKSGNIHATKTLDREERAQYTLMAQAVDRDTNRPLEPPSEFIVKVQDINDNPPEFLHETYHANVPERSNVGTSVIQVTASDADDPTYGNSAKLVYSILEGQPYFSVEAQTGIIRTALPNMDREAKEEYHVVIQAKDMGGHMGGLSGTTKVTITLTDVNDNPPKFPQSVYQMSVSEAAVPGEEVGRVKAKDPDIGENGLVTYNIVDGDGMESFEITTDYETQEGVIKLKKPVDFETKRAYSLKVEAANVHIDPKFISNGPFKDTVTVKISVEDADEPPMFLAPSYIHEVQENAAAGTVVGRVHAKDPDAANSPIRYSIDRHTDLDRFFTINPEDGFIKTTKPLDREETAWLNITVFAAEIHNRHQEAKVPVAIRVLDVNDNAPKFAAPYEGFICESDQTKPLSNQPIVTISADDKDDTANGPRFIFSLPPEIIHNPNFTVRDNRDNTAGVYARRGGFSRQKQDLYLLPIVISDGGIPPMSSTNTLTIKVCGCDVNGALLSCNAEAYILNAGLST
Procedure: (§1) To determine the affinity of SDP051 for recombinant his-tagged human Cad-11, rhCad-11 (R&D Systems) was immobilized to the chip at a single concentration, high resolution kinetics were determined for SDP051, and a 2-state reaction binding model was successfully fitted to the kinetic data.
(§2) Kinetic data were obtained at a flow rate of 40 μL/min to minimize any potential mass transfer effects. An analyte concentration series ranging from 12.5 nM to 0.195 nM was prepared by serial dilution. Two repeats of the blank (no mAb) and the 3.125 nM (first and last cycle) concentration of the analyte were programmed into the kinetic runs in order to check the stability of both the surface and analyte over the kinetic cycles. The SDP051 was injected over the Fcs for 360 seconds, long enough to observe the curvature in association phase.
(§3) As rhCad-11 is homodimeric and therefore contained two identical binding epitopes, it is likely that individual mAb molecules become bound sequentially through a first binding site and then both binding sites.

[3] = target: T2, recombinant his-tagged human Cad-11 …; experiment: SPR, rhCad-11 immobilized, SDP051 as analyte, 2 state reaction model (ka1)
Procedure: as §1, §2, §3

[4] = target: T1, BSA coupled 37-mer Cad-11 peptide …; experiment: ELISA on BSA coupled 37-mer peptide, coat 50 ng/ml; Cad-11 antigen, coat 50 ng/ml
[5] = target: T1, BSA coupled 37-mer Cad-11 peptide …; experiment: ELISA, BSA-coupled 37-mer cadherin peptide coated at 500 ng/ml, antibody titrated, A450
Procedure: (§4) Reactibind plates (ThermoScientific) were coated with 500 ng/ml of the BSA coupled cadherin 37-mer peptide (NE peptide) corresponding to Cadherins-7, -8, -9, -11, -18, -20, and -24 in 0.05% Tween (EMD, product code 9480) in PBS (pH 7.2) (Gibco(Invitrogen), #20012) at 100 μl volume/well for overnight at 4° C. The peptide containing solution was removed from the well and the plate blocked with a 2% bovine serum albumin (BSA) in PBS, 200 μl volume/well, for 2 h at 22° C. The plate was then washed twice with 200 μl/well of PBS-Tween 0.05% at 22° C. and blotted dry. A dilution series from 5 μg/ml to 8 ng/ml in a volume of 100 μl/well of each the humanized anti-Cad-11 antibodies were incubated in the peptide coated wells and incubated at 22° C. for 1 hr. Antibody solution was removed from the wells and the plate washed twice with 200 μl/well of 0.05% Tween-PBS at 22° C. and blotted dry. The goat-anti mouse IgG (Pierce # 31432) was added to each well to plate at a 1:1000 dilution, 100 μl/well and incubate at 22° C. for 30 min. The secondary antibody solution was removed and the plate washed twice with 200 μl/well of 0.05% Tween-PBS at 22° C. and blotted dry. The reaction was developed by adding 100 μl/well tetramethylbenzidine (TMB) reagent IgG (Pierce # 34022, 1 step Turbo TMB-ELISA) to plate and developed at 22° C. for 5 min.

[6] = target: T1, BSA coupled 37-mer Cad-11 peptide …; experiment: as above
Procedure: as §4

[7] = target: T3, recombinant Cad-11 EC1 human IgG1 fusion protein (R&D Systems Cat. No. 1790-CA-050) (human, UniProt P55287 54-617, limits assumed); experiment: competition ELISA on coated recombinant human Cad-11 EC1 fusion protein; competitor biotinylated SYN0012 at 0.1 µg/ml, streptavidin-HRP, OD450
T3 construct: Bought protein; the catalogue product may hold more of the extracellular region; also called recombinant human Cad-11 EC1; recombinant human Cad-11 fusion protein; not shown: human IgG1 part of the bought fusion protein
T3 sequence: T2 sequence
Procedure: The binding of the purified humanized composite variant antibodies (SDP011 to SDP151) to a recombinant Cad-11 EC1 human IgG1 fusion protein was assessed in a competition binding ELISA. A dilution series from 5 μg/ml to 0.0022 μg/ml of the humanized or control (SYN0012/H1M1) antibodies was premixed with a constant concentration of biotinylated murine anti-Cad-11 antibody, SYN0012/H1M1 (0.1 μg/ml, final concentration), before incubating for 1 hour at room temperature on a Nunc Immuno MaxiSorp 96 well flat bottom microtitre plate (Fisher Cat. No. DIS-971-030J) pre-coated with 0.25 μg/ml recombinant human Cad-11 EC1 (R&D Systems Cat. No. 1790-CA-050) diluted in PBS. The binding of the biotinylated mAb was detected with streptavidin-HRP (Sigma Cat. No. 55512) and tetramethylbenzidine (TMB) substrate (Invitrogen Cat. No. 00-2023).

binding differential (Cad-11 against Cad-8) [1]: > 200 fold
Kd [2]: 379 pM
kon [3]: 613000 M⁻¹ s⁻¹
EC50 [4]: 0.0068 µg/mL
EC50 (read off the curve) [5]: ~0.04 µg/mL
EC50 (read off the curve) [6]: ~0.04 µg/mL
IC50 (read off the curve) [7]: ~0.2 µg/mL
B1: humanized anti-Cad-11 EC1 antibody SDP051 (Vκ1/VH5) (antibody, IgG4, V domains shown)
VH: EVQLVQSGAEVKKPGASVKVSCKASGYSFTGYFMNWVRQAPGQGLEWIGRINPYTGDTFYNQKFKGRVTITVDKSTSTAYMELSSLRSEDTAVYYCGRLGSRYWYFDVWGQGTTVTVSS
VL: DVLMTQTPLSSPVTLGQPASISCRSSQSIIHSNGNTYLEWYLQKPGQSPQLLIYKVSNRFSGVPDRFTGSGSGTDFTLKISRVEAEDVGVYYCFQGSHVPWTFGQGTKLEIK
notes: humanized IgG4 (S241P), kappa

IC50 (read off the curve) [7]: ~0.2 µg/mL
B2: murine H1M1 monoclonal anti-Cad-11 EC1 antibody (hybridoma H1M1, ATCC PTA-9699) (antibody, V domains shown)
VH: EVQLQQSGPELVKPGASVKISCKASGYSFTGYFMNWVKQSHGKSLEWIGRINPYTGDTFYNQKFKGKATLTVDKSSSTAHMELLSLSSEDSAVYYCGRLGSRYWYFDVWGAGTTVTVSS
VL: B1 VL with S11L, T14S, Q17D, P18Q, Q50K, V88L, Q105G
modifications: Biotinylated when used as the labelled competitor in Example 14; the letters are unchanged.
notes: murine antibody raised against Peptide 4; also called SYN0012; SYN0012/H1M1
